Experimental findings from the supplement of paper PMC10724198 are described below.

± gives the standard deviation of the averaged measurements.

The subject of data set [1] is Saccharomyces cerevisiae. The data set is described as follows: protein stability index of tFT-peptide fusion (C-terminal peptide) (PSI (0-1 scale)); higher = more stable (slower turnover). The procedure:
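MPS profiling in S. cerevisiae of the tFT-X12 degron library: putative degron peptides plus stable controls, 12 aa, fused to the C-terminus of a sfGFP-mCherry timer. Cells are FACS-sorted into 8 mCherry/sfGFP bins and deep-sequenced. PSI runs from 0 (unstable) to 1 (stable). Backgrounds are wild type, das1Δ and doa10Δ at 30 °C, and wild type, das1Δ, cdc34-1 and cdc53-1 at 37 °C; 2-3 technical replicates each.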

The test system of data set [2] is Saccharomyces cerevisiae. Described as above. To be noted: genetic background: wild type; temperature: 30 C.
[3] abbreviates: genetic background: cdc34-1, temperature: 37 C.
Where [4] appears, read: genetic background: cdc53-1, temperature: 37 C.
Setting [5] is: genetic background: das1 deletion, temperature: 30 C.
Setting [6] is: genetic background: das1 deletion, temperature: 37 C.
The mark [7] stands for this setting: genetic background: doa10 deletion, temperature: 30 C.
Where [8] appears, read: genetic background: wild type, temperature: 30 C.
The mark [9] stands for this setting: genetic background: wild type, temperature: 37 C.
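Note: PSI is a weighted mean of sequencing reads over stability bins, variants kept only with over 10 reads, mCherry proximal and sfGFP distal, peptide attached via GGGS linker.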

ACGGGSNVHRAG: the protein stability index with Saccharomyces cerevisiae [1] (setting [3]) came to 0.665 ± 0.028; with Saccharomyces cerevisiae [1] (setting [4]), 0.7248 ± 0.0067; with Saccharomyces cerevisiae [1] (setting [5]) it was 0.657 ± 0.019; with Saccharomyces cerevisiae [1] (setting [6]), 0.767 ± 0.021; in the data set on Saccharomyces cerevisiae [1] (setting [7]) it was 0.662 ± 0.045; in the data set on Saccharomyces cerevisiae [1] (setting [8]), 0.66 ± 0.018. Also, the protein stability index in the data set on Saccharomyces cerevisiae [1] (setting [9]) worked out at 0.75211 ± 0.00044; with Saccharomyces cerevisiae [2], 0.747 ± 0.012.

Regarding ACVRLVLCVCRV, the protein stability index in the data set on Saccharomyces cerevisiae [1] (setting [3]) was 0.281 ± 0.011; with Saccharomyces cerevisiae [1] (setting [4]), 0.341 ± 0.042; with Saccharomyces cerevisiae [1] (setting [5]), 0.237 ± 0.04; in the data set with Saccharomyces cerevisiae [1] (setting [6]), 0.4091 ± 0.0036; with Saccharomyces cerevisiae [1] (setting [7]), 0.211 ± 0.015; in the data set on Saccharomyces cerevisiae [1] (setting [8]), 0.225 ± 0.028. Also, the protein stability index was found to be 0.375 ± 0.02 with Saccharomyces cerevisiae [1] (setting [9]) and 0.339 ± 0.0039 in the data set with Saccharomyces cerevisiae [2].

For ACVWVVALVWVF, the protein stability index amounted to 0.121 ± 0.005 in the data set on Saccharomyces cerevisiae [1] (setting [3]); 0.249 ± 0.041 in the data set on Saccharomyces cerevisiae [1] (setting [4]); 0.174 ± 0.035 in the data set with Saccharomyces cerevisiae [1] (setting [5]); 0.303 ± 0.015 with Saccharomyces cerevisiae [1] (setting [6]); 0.132 ± 0.0086 with Saccharomyces cerevisiae [1] (setting [7]); 0.153 ± 0.01 with Saccharomyces cerevisiae [1] (setting [8]). In addition, the protein stability index in the data set with Saccharomyces cerevisiae [1] (setting [9]) was found to be 0.243 ± 0.009; in the data set on Saccharomyces cerevisiae [2], 0.213 ± 0.016.

With AEVLCEIVIALR, the protein stability index was 0.582 ± 0.011 in the data set on Saccharomyces cerevisiae [1] (setting [3]); 0.675 ± 0.063 in the data set on Saccharomyces cerevisiae [1] (setting [4]); 0.485 ± 0.04 with Saccharomyces cerevisiae [1] (setting [5]); 0.583 ± 0.0085 with Saccharomyces cerevisiae [1] (setting [6]); 0.45 ± 0.019 in the data set on Saccharomyces cerevisiae [1] (setting [7]); 0.48 ± 0.038 with Saccharomyces cerevisiae [1] (setting [8]). Besides, the results for the protein stability index in the data set with Saccharomyces cerevisiae [1] (setting [9]) and in the data set with Saccharomyces cerevisiae [2] were 0.543 ± 0.018 and 0.523 ± 0.043, respectively.

With AFFFCVVVLFSF, the protein stability index is 0.194 ± 0.0078 in the data set with Saccharomyces cerevisiae [1] (setting [3]); 0.233 ± 0.013 in the data set on Saccharomyces cerevisiae [1] (setting [4]); 0.171 ± 0.027 in the data set with Saccharomyces cerevisiae [1] (setting [5]); 0.289 ± 0.015 in the data set with Saccharomyces cerevisiae [1] (setting [6]); 0.178 ± 0.018 in the data set with Saccharomyces cerevisiae [1] (setting [7]); 0.176 ± 0.041 with Saccharomyces cerevisiae [1] (setting [8]). The figures for the protein stability index in the data set on Saccharomyces cerevisiae [1] (setting [9]) and in the data set with Saccharomyces cerevisiae [2] were 0.256 ± 0.054 and 0.182 ± 0.044, respectively.

As for AFFRCKCYVGTP, the protein stability index in the data set with Saccharomyces cerevisiae [1] (setting [3]) turned out to be 0.568 ± 0.011; in the data set with Saccharomyces cerevisiae [1] (setting [4]), 0.584 ± 0.046; with Saccharomyces cerevisiae [1] (setting [5]) it was 0.502 ± 0.017; with Saccharomyces cerevisiae [1] (setting [6]), 0.598 ± 0.013; in the data set with Saccharomyces cerevisiae [1] (setting [7]) it was 0.512 ± 0.013; in the data set on Saccharomyces cerevisiae [1] (setting [8]), 0.495 ± 0.0099. The protein stability index in the data set on Saccharomyces cerevisiae [1] (setting [9]) was 0.561 ± 0.025; with Saccharomyces cerevisiae [2] it was 0.511 ± 0.057.

As for AFTFLLCWLFGV, the protein stability index in the data set on Saccharomyces cerevisiae [1] (setting [3]) came out at 0.622 ± 0.024; in the data set on Saccharomyces cerevisiae [1] (setting [4]) it was 0.671 ± 0.01; with Saccharomyces cerevisiae [1] (setting [5]) it was 0.552 ± 0.018; with Saccharomyces cerevisiae [1] (setting [6]), 0.627 ± 0.0065; in the data set on Saccharomyces cerevisiae [1] (setting [7]) it was 0.453 ± 0.0068; in the data set with Saccharomyces cerevisiae [1] (setting [8]), 0.454 ± 0.016. The figures for the protein stability index in the data set with Saccharomyces cerevisiae [1] (setting [9]) and with Saccharomyces cerevisiae [2] were 0.585 ± 0.041 and 0.467 ± 0.054, respectively.

Take AFVALCACVIFV: the protein stability index with Saccharomyces cerevisiae [1] (setting [3]) amounted to 0.175 ± 0.015; with Saccharomyces cerevisiae [1] (setting [4]), 0.249 ± 0.026; in the data set with Saccharomyces cerevisiae [1] (setting [5]), 0.215 ± 0.039; with Saccharomyces cerevisiae [1] (setting [6]) it was 0.362 ± 0.005; in the data set with Saccharomyces cerevisiae [1] (setting [7]), 0.178 ± 0.016; in the data set with Saccharomyces cerevisiae [1] (setting [8]), 0.202 ± 0.026. Further, the figures for the protein stability index with Saccharomyces cerevisiae [1] (setting [9]) and in the data set on Saccharomyces cerevisiae [2] were 0.302 ± 0.0078 and 0.302 ± 0.025, respectively.

For AGGVNWWSSWRV, the protein stability index with Saccharomyces cerevisiae [1] (setting [3]) is 0.739 ± 0.049; in the data set with Saccharomyces cerevisiae [1] (setting [4]) it was 0.767 ± 0.0082; in the data set with Saccharomyces cerevisiae [1] (setting [5]), 0.648 ± 0.015; in the data set with Saccharomyces cerevisiae [1] (setting [6]), 0.775 ± 0.011; in the data set with Saccharomyces cerevisiae [1] (setting [7]), 0.6591 ± 0.0032; in the data set on Saccharomyces cerevisiae [1] (setting [8]), 0.669 ± 0.014. The protein stability index in the data set on Saccharomyces cerevisiae [1] (setting [9]) worked out at 0.78 ± 0.037; in the data set on Saccharomyces cerevisiae [2] it was 0.7454 ± 0.006.

Turning to FFSFLFLLLFGA, the protein stability index in the data set with Saccharomyces cerevisiae [1] (setting [3]) was determined as 0.566 ± 0.016; in the data set with Saccharomyces cerevisiae [1] (setting [4]), 0.643 ± 0.0069; in the data set on Saccharomyces cerevisiae [1] (setting [5]) it was 0.556 ± 0.018; with Saccharomyces cerevisiae [1] (setting [6]) it was 0.619 ± 0.07; in the data set on Saccharomyces cerevisiae [1] (setting [7]), 0.555 ± 0.016; in the data set with Saccharomyces cerevisiae [1] (setting [8]), 0.5673 ± 0.0056. Also, the protein stability index with Saccharomyces cerevisiae [1] (setting [9]) amounted to 0.617 ± 0.046.

As to FPPCSFLGFLVF, the protein stability index in the data set with Saccharomyces cerevisiae [1] (setting [3]) turned out to be 0.69 ± 0.027; in the data set on Saccharomyces cerevisiae [1] (setting [4]), 0.768 ± 0.014; with Saccharomyces cerevisiae [1] (setting [5]) it was 0.571 ± 0.023; in the data set on Saccharomyces cerevisiae [1] (setting [6]), 0.73 ± 0.014; with Saccharomyces cerevisiae [1] (setting [7]), 0.556 ± 0.018; in the data set on Saccharomyces cerevisiae [1] (setting [8]) it was 0.556 ± 0.014. The protein stability index in the data set with Saccharomyces cerevisiae [1] (setting [9]) was found to be 0.688 ± 0.034.

Consider GAVGRWGWVSFV, for which the protein stability index was found to be 0.699 ± 0.038 in the data set on Saccharomyces cerevisiae [1] (setting [3]); 0.7732 ± 0.0059 in the data set on Saccharomyces cerevisiae [1] (setting [4]); 0.653 ± 0.014 with Saccharomyces cerevisiae [1] (setting [5]); 0.7883 ± 0.0033 with Saccharomyces cerevisiae [1] (setting [6]); 0.337 ± 0.0076 with Saccharomyces cerevisiae [1] (setting [7]); 0.357 ± 0.025 in the data set with Saccharomyces cerevisiae [1] (setting [8]). This sequence also came in with a protein stability index in the data set on Saccharomyces cerevisiae [1] (setting [9]) of 0.638 ± 0.052.

For the sequence GFTIFFFFFFFV, the protein stability index is 0.227 ± 0.043 in the data set with Saccharomyces cerevisiae [1] (setting [3]); 0.234 ± 0.018 with Saccharomyces cerevisiae [1] (setting [4]); 0.193 ± 0.035 in the data set on Saccharomyces cerevisiae [1] (setting [5]); 0.266 ± 0.045 in the data set on Saccharomyces cerevisiae [1] (setting [6]); 0.287 ± 0.056 with Saccharomyces cerevisiae [1] (setting [7]); 0.165 ± 0.0033 in the data set with Saccharomyces cerevisiae [1] (setting [8]). The sequence further came in with a protein stability index in the data set on Saccharomyces cerevisiae [1] (setting [9]) of 0.264 ± 0.0077.

GPPPPPSLLLLC: the protein stability index with Saccharomyces cerevisiae [1] (setting [3]) is 0.6 ± 0.04; in the data set on Saccharomyces cerevisiae [1] (setting [4]), 0.712 ± 0.0078; in the data set on Saccharomyces cerevisiae [1] (setting [5]), 0.614 ± 0.025; in the data set with Saccharomyces cerevisiae [1] (setting [6]) it was 0.721 ± 0.011; in the data set with Saccharomyces cerevisiae [1] (setting [7]) it was 0.201 ± 0.0072; in the data set on Saccharomyces cerevisiae [1] (setting [8]), 0.211 ± 0.015. The sequence also came in with a protein stability index in the data set on Saccharomyces cerevisiae [1] (setting [9]) of 0.345 ± 0.02.

With GVAVVWVGLGVT, the protein stability index in the data set on Saccharomyces cerevisiae [1] (setting [3]) was 0.325 ± 0.011; in the data set on Saccharomyces cerevisiae [1] (setting [4]), 0.445 ± 0.043; with Saccharomyces cerevisiae [1] (setting [5]) it was 0.27 ± 0.018; with Saccharomyces cerevisiae [1] (setting [6]) it was 0.474 ± 0.0068; in the data set with Saccharomyces cerevisiae [1] (setting [7]), 0.227 ± 0.013; in the data set with Saccharomyces cerevisiae [1] (setting [8]), 0.262 ± 0.017. In addition, in the data set on Saccharomyces cerevisiae [1] (setting [9]), the protein stability index is 0.4519 ± 0.0017.

LDVGGRRGGEHC: the protein stability index was determined as 0.598 ± 0.071 in the data set with Saccharomyces cerevisiae [1] (setting [3]); 0.646 ± 0.096 in the data set on Saccharomyces cerevisiae [1] (setting [4]); 0.554 ± 0.024 in the data set on Saccharomyces cerevisiae [1] (setting [5]); 0.6665 ± 0.0011 with Saccharomyces cerevisiae [1] (setting [6]); 0.583 ± 0.092 in the data set with Saccharomyces cerevisiae [1] (setting [7]); 0.594 ± 0.077 in the data set on Saccharomyces cerevisiae [1] (setting [8]). The sequence also registered a protein stability index with Saccharomyces cerevisiae [1] (setting [9]) of 0.598 ± 0.011.

Regarding LFVLVLLCWMLT, the protein stability index with Saccharomyces cerevisiae [1] (setting [3]) is 0.347 ± 0.038; in the data set on Saccharomyces cerevisiae [1] (setting [4]), 0.462 ± 0.014; in the data set on Saccharomyces cerevisiae [1] (setting [5]), 0.373 ± 0.029; with Saccharomyces cerevisiae [1] (setting [6]) it was 0.42739 ± 0.00025; in the data set with Saccharomyces cerevisiae [1] (setting [7]), 0.357 ± 0.012; in the data set with Saccharomyces cerevisiae [1] (setting [8]) it was 0.34 ± 0.013. The sequence also displayed a protein stability index with Saccharomyces cerevisiae [1] (setting [9]) of 0.434 ± 0.03.

In the case of LWGVGFLFVLVG, the protein stability index with Saccharomyces cerevisiae [1] (setting [3]) worked out at 0.1858 ± 0.0014; in the data set with Saccharomyces cerevisiae [1] (setting [4]), 0.268 ± 0.024; in the data set with Saccharomyces cerevisiae [1] (setting [5]) it was 0.229 ± 0.036; in the data set with Saccharomyces cerevisiae [1] (setting [6]), 0.403 ± 0.039; with Saccharomyces cerevisiae [1] (setting [7]), 0.105 ± 0.0094; with Saccharomyces cerevisiae [1] (setting [8]) it was 0.131 ± 0.017. This sequence also yielded a protein stability index in the data set on Saccharomyces cerevisiae [1] (setting [9]) of 0.183 ± 0.014.
